In paper PMC8847413 (Nature Communications, 2022):

B1: MAb 8D3 (IgG) (antibody, V domains shown)
VH: EVQLQQSGPELVKPGASVKISCKTSGYTFTEYTMYWVKQSHGKSLEWIGGINPNIGDTSYNQNFKGKATLTVDRSSSTAYMELRSLTSEDSAVYYCARDGYPYYYALDHWGQGTSVTVSS
VL: DIVMTQSQKFMSTSVGDRVSVTCKASQNVGTNVAWYQQKPGQSPKALIYSTSYRYSGVPDRFTGSGSGTDFTLTISNVQSEDLAEYFCQQYNSYPYTFGGGTKLEIK
notes: copies: 2 + 2
B2: MAb 2H2 (antibody, V domains shown)
VH: QVQLKQSGPSLVQPSQSLSITCTVSGFSLTSYGVHWVRQSPGKGLEWLGVMWRGGNTDYNAAFMSRLSITKDNSKSQVFFKMNSLQTDDTAIYYCAKNGGAHAMDFWGQGTSVTVSS
VL: NIVLTQSPASLAVSLGQRATISCRASESVDSYGNSFLHWYQQKPGQPPKLLIYLASNLESGVPARFSGSGSRTDFTLTIDPVEADDAATYYCQQNNEDPFTFGSGTKLEIK
notes: copies: 2 + 2
B3: MAb 3C1 (antibody, V domains shown)
VH: EVQLQESGPSLVKPSQTLSLTCSVTGDSITNGYWNWIRKFPGNKLEYMGYISYSGSTYYSPSLKSRISITRDTSKNQHYLQLNSVTSEDTATYYCASDYHGSKYYFDYWGQGTTLTVSS
VL: DIVMTQSHKFMSTSVGHRVSITCKASQDVGNDVAWYQQKPGQSPKLLIYWASTRHTGVPDRFTGSGSGTDFTLTISNVQSEDLADYFCQQYNRYPYTFGGGTKLEIK
notes: copies: 2 + 2

Molecular target: T1, recombinant RBD protein derived from the SARS-CoV-2 WT strain (SARS-CoV-2 wild type (Wuhan-Hu-1), UniProt P0DTC2)
T1 construct: also called WT-RBD; WT RBD
Test: ELISA
Settings: both partners purified

Row | Binder | binding result
1 | B1 | binds
2 | B2 | binds
3 | B3 | binds
